The target of test [1] is acetylcholine receptor. The test is described as follows: SPR, AchR immobilised on chip, peptide 10 uM. For orientation: In SPR one partner is held on a chip, and binding of the other changes the refractive index at the surface.
For test [2], the target named is acetylcholine receptor. Description: SPR, AchR on chip, peptide 10 uM.

Molecule RPWKR [5mer-1100] came in with a Binding affinity (RU) in the test with acetylcholine receptor [1] of 24 RU. In the test with acetylcholine receptor [1], KECFK [5mer-823] returned a Binding affinity (RU) of 26 RU.

RITMR [5mer-814] yielded a Binding affinity (RU) with acetylcholine receptor [1] of 11 RU. In the test with acetylcholine receptor [1], KYEKR [5mer-1123] displayed a Binding affinity (RU) of 24 RU. In turn, KFSMK [5mer-1132] gave a Binding affinity (RU) with acetylcholine receptor [1] of 19 RU. RYPFK [5mer-1125] displayed a Binding affinity (RU) in the test with acetylcholine receptor [1] of 29 RU. In the test with acetylcholine receptor [1], RHKDR [5mer-817] yielded a Binding affinity (RU) of 23 RU. In the case of KEAPR [5mer-800], the Binding affinity (RU) with acetylcholine receptor [1] came to 29 RU. With KMTMR [5mer-811], the Binding affinity (RU) in the test with acetylcholine receptor [1] was determined as 32 RU. Turning to KAEHK [5mer-1111], in the test with acetylcholine receptor [1], the Binding affinity (RU) was 12 RU. Molecule KKAGR [5mer-827] had a Binding affinity (RU) with acetylcholine receptor [1] of 18 RU. Same read-out and setting: the result for RKNKK [5mer-807] reads 20 RU; that for RKDHR [5mer-815], 27 RU; that for KPTHK [5mer-1126], 26 RU. KKSHR [5mer-1103]: the Binding affinity (RU) with acetylcholine receptor [1] was determined as 18 RU. KMNIK [5mer-1119] showed a Binding affinity (RU) with acetylcholine receptor [1] of 19 RU. In turn, RITVR [5mer-802] displayed a Binding affinity (RU) in the test with acetylcholine receptor [1] of 27 RU. For RKPIK [5mer-816], in the test with acetylcholine receptor [1], the Binding affinity (RU) came to 26 RU. As for RDEKK [5mer-825], the Binding affinity (RU) in the test with acetylcholine receptor [1] came to 14 RU. With KFDAR [5mer-1129], in the test with acetylcholine receptor [1], the Binding affinity (RU) worked out at 14 RU. RNTIR [5mer-804] registered a Binding affinity (RU) with acetylcholine receptor [1] of 20 RU.

As for RTTFK [5mer-1112], the Binding affinity (RU) with acetylcholine receptor [1] worked out at 29 RU. For RKTFR [5mer-1114], in the test with acetylcholine receptor [1], the Binding affinity (RU) came out at 28 RU. Molecule KFHGR [5mer-801] returned a Binding affinity (RU) with acetylcholine receptor [1] of 20 RU. Still for that read-out and setting: the result for KCDGK [5mer-1131] reads 14 RU. Turning to RAKGK [5mer-822], in the test with acetylcholine receptor [1], the Binding affinity (RU) was determined as 16 RU. Molecule RFKVK [5mer-1121] yielded a Binding affinity (RU) in the test with acetylcholine receptor [1] of 29 RU. Regarding KTEGR [5mer-812], the Binding affinity (RU) with acetylcholine receptor [1] came out at 27 RU.

In the test with acetylcholine receptor [1], RKSGK [5mer-809] had a Binding affinity (RU) of 15 RU.

In the case of KFHKK [5mer-810], the Binding affinity (RU) with acetylcholine receptor [1] amounted to 11 RU. For KCKMK [5mer-826], in the test with acetylcholine receptor [1], the Binding affinity (RU) amounted to 11 RU. KVVYK [5mer-25] showed a Binding affinity (RU) with acetylcholine receptor [2] of 60 RU.

In the case of KEPEK [5mer-1115], the Binding affinity (RU) with acetylcholine receptor [1] was determined as 27 RU. In the test with acetylcholine receptor [1], RMDAR [5mer-1118] came in with a Binding affinity (RU) of 28 RU.

In the test with acetylcholine receptor [1], RATAR [5mer-1099] displayed a Binding affinity (RU) of 14 RU. As for KHWHR [5mer-818], in the test with acetylcholine receptor [1], the Binding affinity (RU) turned out to be 12 RU. Turning to KYKNR [5mer-1101], the Binding affinity (RU) with acetylcholine receptor [1] was determined as 11 RU. KDKPR [5mer-799] yielded a Binding affinity (RU) with acetylcholine receptor [1] of 24 RU. In the case of RPWHK [5mer-1107], in the test with acetylcholine receptor [1], the Binding affinity (RU) turned out to be 21 RU. Still for that read-out and setting: the result for RAHVR [5mer-813] reads 21 RU; that for RFMVR [5mer-1130], 17 RU; that for KCHPK [5mer-1109], 14 RU. In the test with acetylcholine receptor [1], RAAGK [5mer-831] came in with a Binding affinity (RU) of 24 RU.

In the test with acetylcholine receptor [1], RHMER [5mer-1113] registered a Binding affinity (RU) of 19 RU. In the case of RNPIR [5mer-1108], the Binding affinity (RU) with acetylcholine receptor [1] was determined as 19 RU. RIADR [5mer-1127] yielded a Binding affinity (RU) in the test with acetylcholine receptor [1] of 16 RU. The same measure, in the same setting: then KCWHR [5mer-829], with 26 RU; and RIMHK [5mer-820], with 28 RU. As for KSQRR [5mer-324], the Binding affinity (RU) with acetylcholine receptor [2] was determined as 58 RU. In turn, KRIQR [5mer-325] showed a Binding affinity (RU) in the test with acetylcholine receptor [2] of 50 RU.

In turn, RFCWR [5mer-828] showed a Binding affinity (RU) with acetylcholine receptor [1] of 27 RU.

As for RETHK [5mer-1104], the Binding affinity (RU) in the test with acetylcholine receptor [1] was 12 RU. On the same count and under the same terms, then RESDR [5mer-821], with 12 RU; and RPTKR [5mer-1105], with 33 RU.

On to KTHKK [5mer-1102], for which the Binding affinity (RU) with acetylcholine receptor [1] is 20 RU. The same measure, in the same setting: the result for RYTER [5mer-1106] reads 18 RU.

RHKIR [5mer-1117] showed a Binding affinity (RU) in the test with acetylcholine receptor [1] of 11 RU. Regarding KKPVK [5mer-1124], the Binding affinity (RU) with acetylcholine receptor [1] was found to be 30 RU.

RNTIK [5mer-819] gave a Binding affinity (RU) with acetylcholine receptor [1] of 19 RU.

Molecule RMHMK [5mer-1110] yielded a Binding affinity (RU) with acetylcholine receptor [1] of 13 RU. In the test with acetylcholine receptor [1], KECFR [5mer-1116] displayed a Binding affinity (RU) of 24 RU. For the molecule KFCIR [5mer-808], the Binding affinity (RU) with acetylcholine receptor [1] is 13 RU. The molecule KIDMK [5mer-824] displayed a Binding affinity (RU) with acetylcholine receptor [1] of 13 RU. Same read-out and setting: then RPTNR [5mer-805], with 27 RU; and KATAK [5mer-833], with 33 RU; and RNTDR [5mer-1122], with 14 RU. In turn, RKMFR [5mer-806] returned a Binding affinity (RU) in the test with acetylcholine receptor [1] of 17 RU. In the test with acetylcholine receptor [1], RFSDR [5mer-803] showed a Binding affinity (RU) of 11 RU. On the same count and under the same terms, then REWVR [5mer-1128], with 26 RU.

RIDGK [5mer-830] gave a Binding affinity (RU) with acetylcholine receptor [1] of 25 RU.

Take RMHER [5mer-832]: the Binding affinity (RU) in the test with acetylcholine receptor [1] was 18 RU. As for RPPDR [5mer-1120], the Binding affinity (RU) with acetylcholine receptor [1] amounted to 33 RU.

(Values after US20250011363A1, “OPTIMIZED SHORTENED PEPTIDE THAT BINDS TO ACETYLCHOLINE RECEPTOR, AND USE THEREOF” (SKINMED CO., LTD., priority 2021, published 2025).)
